Source: patent US20080286815A1, “SPECTROPHOTOMETRIC ASSAY FOR HUMAN HISTONE DEACETYLASE 8” (THE UNIVERSITY OF AKRON, priority 2007, published 2008)

Substrate: CSCC[C@H](NC(=O)[C@H](CC(C)C)NC(=O)[C@H](CCCC/N=C(/C)S)NC(=O)[C@H](CCCCN)NC(=O)[C@H](Cc1c[nH]cn1)NC(=O)[C@H](CCCN=C(N)N)NC(=O)[C@H](CO)NC(=O)[C@@H](NC(=O)[C@H](CO)NC(=O)[C@H](CCC(N)=O)NC(=O)CNC(=O)[C@H](CCCCN)NC(=O)[C@@H](N)CCCCN)[C@@H](C)O)C(=O)N[C@@H](Cc1ccccc1)C(=O)N[C@@H](CCCCN)C(=O)N[C@H](C(=O)N[C@@H](CCC(=O)O)C(=O)NCC(=O)O)[C@@H](C)O
Test: DTNB-based enzymatic assay with purified HDAC8
Format: biochemical, human
Settings: other: peptide as in vitro HDAC8 substrate, 375 nM HDAC8, room temperature, 1 hour, pH 6.8
Procedure: DTNB-based enzymatic assay. The DTNB data shown in FIG. 4 was generated using the following procedure. A second portion (300 µL) of the above HDAC8 assay mixture was quenched with 600 µL of the stop solution: 3.2 M guanidinium chloride in 100 mM of sodium phosphate (pH 6.8), and was analyzed by the DTNB-based assay procedure according to the invention, i.e. 60 min after the quench and DTNB (100 µL) addition, A412 was recorded for each sample derived at different time points of the same assay reaction. Again, the same assay protocol was used when the HeLa nuclear extracts were used instead of human HDAC8. To measure the kinetic parameters for the thioacetyl-lysine p53 peptide as an in vitro HDAC8 substrate, all the assay reactions contained 375 nM of HDAC8, a range of substrate concentrations varied around the Km value, and were allowed to proceed at room temperature for 1 hour before quenching. Reaction velocities were determined under initial condition (substrate turnover <10%). This experiment was performed twice, and each duplicate measurement agreed within 20%. By using a non-linear least squares approach with the computer program Kaleidagraph (Reading, Pa., USA), kinetic parameters (kcat and Km) were derived from the Michaelis-Menten plot based on the experimental data.
Assay with purified HDAC8. […]

B1: human HDAC8 (Homo sapiens) (protein)
chain: MEEPEEPADSGQSLVPVYIYSPEYVSMCDSLAKIPKRASMVHSLIEAYALHKQMRIVKPKVASMEEMATFHTDAYLQHLQKVSQEGDDDHPDSIEYGLGYDCPATEGIFDYAAAIGGATITAAQCLIDGMCKVAINWSGGWHHAKKDEASGFCYLNDAVLGILRLRRKFERILYVDLDLHHGDGVEDAFSFTSKVMTVSLHKFSPGFFPGTGDVSDVGLGKGRYYSVNVPIQDGIQDEKYYQICESVLKEVYQAFNPKAVVLQLGADTIAGDPMCSFNMTPVGIGKCLKYILQWQLATLILGGGGYNLANTARCWTYLTGVILGKTLSSEIPDHEFFTAYGPDYVLEITPSCRPDRNEPHRIQQILNYIKGNLKHVV
In the case of B1, the Km is reported as 33.7 ± 7.2 µM and the kcat is reported as 0.00433 ± 0.00033 s⁻¹.
